Measurements published in publication PMC2764089.

Target: Spc105p-PrA (S. cerevisiae) (UniProt P53148)
Experiment: SEC + other: glycerol-gradient velocity ultracentrifugation; whole cell extracts of wild-type strains expressing Spc105p-PrA or Kre28p-PrA (each fusion in its own strain); 10-40% glycerol gradients and HiPrep 16/60 Sephacryl S-500 HR column; fractions found by western blotting with anti-PrA

UniProt P53148, sequence (P53148 whole entry, the tested form may be a part): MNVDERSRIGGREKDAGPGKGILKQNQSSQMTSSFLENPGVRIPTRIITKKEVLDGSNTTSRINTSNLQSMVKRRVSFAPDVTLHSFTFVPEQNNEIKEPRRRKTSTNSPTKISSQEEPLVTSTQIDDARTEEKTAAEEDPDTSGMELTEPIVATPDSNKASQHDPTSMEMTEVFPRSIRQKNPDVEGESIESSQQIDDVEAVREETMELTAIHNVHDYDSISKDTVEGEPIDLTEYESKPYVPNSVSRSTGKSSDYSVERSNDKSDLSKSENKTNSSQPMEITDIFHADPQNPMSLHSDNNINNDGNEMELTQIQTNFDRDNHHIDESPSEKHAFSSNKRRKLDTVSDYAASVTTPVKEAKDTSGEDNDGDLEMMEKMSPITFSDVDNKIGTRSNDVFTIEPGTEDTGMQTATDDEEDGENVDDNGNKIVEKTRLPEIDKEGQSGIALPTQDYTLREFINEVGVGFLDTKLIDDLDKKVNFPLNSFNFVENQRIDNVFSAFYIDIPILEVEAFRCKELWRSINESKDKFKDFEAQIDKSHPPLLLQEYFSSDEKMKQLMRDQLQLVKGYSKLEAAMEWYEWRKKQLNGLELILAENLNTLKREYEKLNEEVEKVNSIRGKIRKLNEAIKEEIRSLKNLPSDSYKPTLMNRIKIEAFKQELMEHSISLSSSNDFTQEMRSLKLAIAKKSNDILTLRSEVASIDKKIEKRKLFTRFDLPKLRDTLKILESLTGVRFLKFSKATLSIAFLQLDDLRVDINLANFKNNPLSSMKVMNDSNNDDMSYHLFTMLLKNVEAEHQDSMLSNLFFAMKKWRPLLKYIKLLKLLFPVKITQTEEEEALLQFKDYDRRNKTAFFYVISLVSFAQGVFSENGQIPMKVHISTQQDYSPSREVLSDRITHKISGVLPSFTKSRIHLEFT

stoichiometry N (Kre28p per Spc105p): 2
Substance: Kre28p-PrA (from UniProt Q04431 1-385) (natural protein)
